72 sequences from the supplement of paper PMC10567573 can be followed below.

± gives the standard deviation.

This series is described as follows: protein stability index of a GFP-peptide fusion (GPS, HEK-293T) (PSI 1-6); higher = more stable.
Where [1] appears, read: treatment: DMSO, c terminus: a fixed tail appended.
The mark [2] stands for this setting: treatment: MLN4924 1 uM, 8 h, c terminus: a fixed tail appended.
[3] abbreviates: treatment: DMSO, c terminus: native.
Where [4] appears, read: treatment: MLN4924 1 uM, 8 h, c terminus: native.
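Also: 24-mer peptide tiles fused after GFP, lentivirally expressed, FACS-sorted into six equal bins by GFP/DsRed ratio, decoded by Illumina sequencing, PSI is the read-weighted mean bin number.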

For the sequence GPDGHLPAVATLCDLFDREIVVTI [ESRRA], the protein stability index by setting is: under setting [1], 3.01 ± 0.7; under setting [2], 2.91 ± 0.41.
The corresponding values for AWLNEHRKNPYPTKGEKIMLAIIT [IRX6] are 2.7 ± 0.42 and 2.51 ± 0.41.
Taken in the same sequence, the figures for EPDANFPQFLHEGLSKPVYVINWF [FAM104B] were 2.37 ± 0.43 and 2.48 ± 0.36.
As to VIKMLVNDNKVLRYLAVLESPIPE [EFHC1], the protein stability index under setting [1] amounted to 2.32 ± 0.31.
Turning to TFLVFSKAELGALPHDFIDSLEKT [NLN], the protein stability index under setting [1] came to 2.13 ± 0.26 and the protein stability index under setting [2] stood at 2.5 ± 0.25.
As to TSVLDALSTDMVHAASDPSSSSGR [SMOC2], the protein stability index by setting is: under setting [1], 4.99 ± 0.19; under setting [2], 4.96 ± 0.18.
The corresponding values for EESFRQMVVIHKEIPTGKKDHECS [ZNF232] are 4.84 ± 0.31 and 4.77 ± 0.11.
SSHSRGPLSWAPCGPIAGSRQALS: the protein stability index runs as follows: under setting [1], 3.42 ± 0.13; under setting [2], 3.44 ± 0.17.
Taken in the same sequence, the figures for QEEEQAETPMAPVPLGPLGETYCE [TRIM15] were 5.4 ± 0.17 and 5.57 ± 0.16.
Taken in the same sequence, the figures for GSARYDFSHEILRDEESFFGERRI [ALKBH7] were 3.75 ± 0.29 and 3.71 ± 0.5.
The corresponding values for ETSYLEMAAGSEPESVEASPVVVE [KMT2E] are 5.38 ± 0.27 and 5.18 ± 0.34.
In the case of ALQEKLWNVAAPLYLKQSDLASAA [INTS4], the protein stability index worked out at 2.31 ± 0.17 under setting [1] and 2.27 ± 0.3 under setting [2].
Taken in the same sequence, the figures for LNLEEDRIQIWFQNRRAKLKRSHR [HESX1] were 2.86 ± 0.18 and 3.16 ± 0.36.
The corresponding values for VTTRQVRTIVEEVQDGKVISSREQ [KRT17] are 4.87 ± 0.3 and 4.87 ± 0.36.
Taken in the same sequence, the figures for SHQELHRELLMNHRRGLGVDSKPE [FAM107A] were 4.61 ± 0.22 and 4.57 ± 0.2.
Sequence PDCGKAFVSRYKLMRHMATHSPQK [PLAGL1] displayed a protein stability index under setting [1] of 2.88 ± 0.24 and a protein stability index under setting [2] of 3 ± 0.22.
Taken in the same sequence, the figures for GSNDRVQGVISQLEDTCKTIEECC [TRIM55] were 4.71 ± 0.098 and 4.77 ± 0.31.
Turning to HNAVTSHQRPGWPGQPHSPFPHPT [NCF4], the protein stability index by setting is: under setting [1], 3.11 ± 0.17; under setting [2], 3.67 ± 0.21.
Taken in the same sequence, the figures for SIWAQNQVENWSAFAPDFKELDEN [RBBP5] were 4.26 ± 0.26 and 4.23 ± 0.23.
The corresponding values for CRYPYEYEGGHIKGAVNLHMEEEV [CDC25A] are 3.8 ± 0.34 and 3.7 ± 0.33.
Taken in the same sequence, the figures for NLPCNKFKNRLVNIMPYESTRVCL [PTPRD] were 2.15 ± 0.23 and 2.65 ± 0.96.
On to FATASAAVPVSTSKPSSDLLDLQP [SNAP91], for which the protein stability index came out at 4.01 ± 0.28 under setting [1] and 4.1 ± 0.41 under setting [2].
As for AAKKVAPLMAKAIRDYKGRFSRR [ELOA2], the protein stability index runs as follows: under setting [3], 2.79 ± 0.33; under setting [4], 3.02 ± 0.62.
As to NQSVEPKKEEPEPETEAVSSSQEI [ZMYND11], the protein stability index under setting [1] came out at 5.25 ± 1 and the protein stability index under setting [2] was found to be 5.29 ± 0.52.
Regarding QIVTKKIDLSHVTSKCGSLKNIRH [MAP2], the protein stability index came out at 2.67 ± 0.039 under setting [1] and 2.71 ± 0.2 under setting [2].
Taken in the same sequence, the figures for TDEFRELRATVERMGLMKANHVFF [FADS1] were 2.48 ± 0.56 and 2.12 ± 0.21.
The corresponding values for LPKVLQKYWCVTATRVAPERLFGS [ZBED1] are 2.47 ± 0.65 and 2.2 ± 0.21.
With WYSPYAKTLQPTKQPNCSSLFKLK [PLD5], the protein stability index is, setting by setting: under setting [1], 2.32 ± 0.21; under setting [2], 2.79 ± 0.21.
As to HQLGFIHRDIKPDNLLLDAKGHVK [STK38L], the protein stability index runs as follows: under setting [1], 3.71 ± 0.31; under setting [2], 4.12 ± 0.26.
The corresponding values for KAVCGKCSSKRSSIPLMGFEFEVR [WDFY2] are 2.32 ± 0.12 and 2.71 ± 0.39.
The corresponding values for QDLCCRAVVSCTPVHLVDKLPLPI [RAB40B] are 2.4 ± 0.27 and 2.09 ± 0.56.
The corresponding values for PAFTVWCGSFQVTTGLQVPSAVRC [FSD1] are 2.63 ± 0.6 and 2.56 ± 0.54.
For LIQFLEQVHQGIKGMVLDENYNNL [CPN1], the protein stability index was determined as 2.62 ± 0.065 under setting [1] and 3.07 ± 0.61 under setting [2].
The corresponding values for KHFCPRTPVILVGCQLDLRYADLE [RHOBTB1] are 2.35 ± 0.49 and 2.19 ± 0.33.
Taken in the same sequence, the figures for TPESTKPGPVCQPPVSQSRSLFSS [ANKRD40] were 4.46 ± 0.19 and 4.21 ± 0.21.
The corresponding values for LLTLPRPPLSGALASITETIQVHR [HDAC6] are 3.12 ± 0.13 and 3.22 ± 0.28.
Regarding GCASFIYLRPQSNYSSSQDALISV [OR10K2], the protein stability index was 2.65 ± 0.81 under setting [1] and 2.54 ± 0.61 under setting [2].
Taken in the same sequence, the figures for QAMFDTLGIPKSTTSDIPHMLNQV [FAM98B] were 3.18 ± 0.23 and 3.23 ± 0.26.
Turning to NVIETCKEAGVQKLILTSSASVIF [NSDHL], the protein stability index runs as follows: under setting [1], 2.69 ± 0.27; under setting [2], 2.86 ± 0.71.
The corresponding values for VEPVCSGLQAQILHCYRDRPHEVL [CHCHD6] are 2.93 ± 0.21 and 2.94 ± 0.5.
The corresponding values for PMDLSTVKRKMDGREYPDAQGFAA [BRD3] are 4.21 ± 0.2 and 4.38 ± 0.43.
In the case of ASHNGISYKDLDVIFGVELPGNEE [TENT5D], the protein stability index runs as follows: under setting [1], 4.03 ± 0.16; under setting [2], 4.01 ± 0.13.
The corresponding values for VPLCSCRMETPKSREITTLANNQC [EHMT1] are 2.62 ± 0.17 and 2.81 ± 0.24.
Taken in the same sequence, the figures for KIRKPRTIYCSLQLQALNRRFQQT [DLX1] were 2.45 ± 0.78 and 1.95 ± 0.51.
Taken in the same sequence, the figures for SGSRHPPWARGCGMFTFLSSVTAA [SLC2A12] were 2.48 ± 0.43 and 2.38 ± 0.62.
For RVTNVGSLLLTPQENESLFTFLGK [WASL], the protein stability index under setting [1] was 2.84 ± 0.27 and the protein stability index under setting [2] was 3.19 ± 0.27.
The corresponding values for IVISYIHVAAAVLRIRSVEGRKKA [OR3A1] are 2.37 ± 0.6 and 2.05 ± 0.21.
Taken in the same sequence, the figures for GAELHLQPLEGGTPNSAGGPGAHI [ADAMTS4] were 4.51 ± 1.1 and 4.74 ± 0.36.
Taken in the same sequence, the figures for LKDVKSTLEKCEKVKTMEVTSVSI [TRIM39] were 3.92 ± 0.16 and 3.89 ± 0.17.
With AMLREKFPEFCSSPSPPVEVKIEE [INTS3], the protein stability index came to 4.51 ± 0.3 under setting [1] and 4.65 ± 0.12 under setting [2].
Taken in the same sequence, the figures for YFYMSCLVKHKRIHSREKRGDSVK [ZNF649] were 1.73 ± 0.16 and 2.38 ± 0.55.
The corresponding values for VELLKNLTKYPTDRDSIWKCLKFL [INTS4] are 2.63 ± 0.28 and 2.08 ± 0.22.
Taken in the same sequence, the figures for QEENKSLREENKALREENRMLSKE [CBY2] were 5.56 ± 0.47 and 5.587 ± 0.023.
Turning to VKKCLELFSELAEDKENYKKFYEA [HSP90AB1], the protein stability index runs as follows: under setting [1], 2.54 ± 0.34; under setting [2], 2.74 ± 0.33.
Taken in the same sequence, the figures for PVPVIVSNFNYFYHRETEGEEQSQ [KCNA3] were 3.81 ± 0.34 and 4.15 ± 0.28.
The corresponding values for DLRADDLPGPAFESYESMELACPA [KLHDC2] are 4.84 ± 0.11 and 4.72 ± 0.34.
Taken in the same sequence, the figures for LHSKEIVYRDLKPENILLDRDGHI [PRKX] were 3.7 ± 0.15 and 3.75 ± 0.097.
With EELQNKILTATVDNANILLQIDNA [KRT17], the protein stability index was determined as 4.03 ± 0.095 under setting [1] and 4.3 ± 0.053 under setting [2].
The corresponding values for TREGFTLLHLAVNSNTPVDDFHTN [FEM1B] are 2.85 ± 0.17 and 2.95 ± 0.19.
The corresponding values for EKVEVQLPELFHKIGVGAMTWSPL [KCNAB2] are 2.45 ± 0.26 and 2.51 ± 0.16.
Taken in the same sequence, the figures for LQQAQAQFRMAQEEARRNRLMRDM [SMG5] were 3.89 ± 0.22 and 4.11 ± 0.27.
As for SIFGICMVFSGLCPLLLGSVMAIE [PTGFR], the protein stability index by setting is: under setting [1], 3.36 ± 0.43; under setting [2], 3.09 ± 0.84.
The corresponding values for SDAANRNHEALRQAKQEMNESRRQ [PRPH] are 5.2 ± 0.26 and 4.96 ± 0.34.
Taken in the same sequence, the figures for IVGIVEKGNRTARIIDKPRVIEVL [SEPHS2] were 2.56 ± 0.29 and 2.27 ± 0.49.
For NTLSVSYKKGRMMKDISNLEENDE [SLC6A17], the protein stability index is, setting by setting: under setting [1], 4.91 ± 0.3; under setting [2], 5.08 ± 0.23.
The corresponding values for LGVRRPGGAGKEGVRVNNRFELIN [TCF25] are 3.05 ± 0.39 and 3.12 ± 0.43.
Take RIHVRRHITHDERPHGQQIVFKD [KCTD13]: the protein stability index runs as follows: under setting [3], 4.31 ± 0.24; under setting [4], 4.33 ± 0.32.
As for PGQEAQRVVCGIDSSMILTVPGQA [NEK8], the protein stability index was 3.78 ± 0.23 under setting [1] and 3.81 ± 0.22 under setting [2].
In the case of CSECGESFSRSSRLMSHQRTHTG [ZNF263], the protein stability index is, setting by setting: under setting [3], 3.02 ± 0.6; under setting [4], 3.53 ± 0.95.
Turning to MSVLWLEHDRETRMQYAPDLMKRL [KLHL14], the protein stability index runs as follows: under setting [1], 2.35 ± 0.11; under setting [2], 2.45 ± 0.15.
Taken in the same sequence, the figures for IDVSKREPPPVKQELPPYNGFGLV [EFHC1] were 3 ± 0.095 and 3.03 ± 0.27.
The corresponding values for CAECSQYLDETCTCFVRDGKTYCK [ISL2] are 4.98 ± 0.29 and 4.74 ± 0.37.
